Laboratory results: IntAct's records for PubMed 19942853

B1: Cullin-associated NEDD8-dissociated protein 1 homolog (Saccharomyces cerevisiae), Q92325 (parent)
chain: MSLHISKLIEQYRSTKDNDLKYMLLRQNFKINDIEDELAPLVNELLLPVLVEEQDMEILNLVSFQVLPDLVLSMISDPAAAQLGWVISLICDPLLNQSMIHANRSFVLIETLRNVLQKIENSPHLDYHQPVNSSLEFISKFIVEMKRHMCDVDAAQLSHSLSESNMLIYIESLNLLLKFSFFSDAASPSVMVTLPFDILNDVFTIAQDYSATNTNESIDRITEKLLLTSTQLTHPVDLENLCPKMKYNTLAAVSRIWYKFGPIVDKLFTNRLLPVLFPPQMGEECNVEDVLEIVHNFHPYFSIRRLKDNRPLLSDSTISQLREGLFGMLSILNDSLTRTQNENDHGSDNLIDSDDGFGSDNDPEQQAYLDELVSEGYDENMYDGDTDDEDADDINVEKNDEATKDITETNKILLIFSELHYPQEERFSELLVELQTKIAINTSLIDKILSKETTELPTHNGEIADLNEILNEVKGNKPIRKNVIFCTLAHTLSLQSGSELSVLQLSIEVIDHLLVKNHSNNITRGEQFQLIKLILPHLKTNKSFIDTLKAGNFTQKIDEGVTLRTMILSLLLQLFPLDYSMLGEILPTIARYSVRDKDLGVRDLSFQLLDQILRTYYNYLIGIDWEWYKDDFYQVLQETCIKKDINTNLLLQFPPYLPHD
partner: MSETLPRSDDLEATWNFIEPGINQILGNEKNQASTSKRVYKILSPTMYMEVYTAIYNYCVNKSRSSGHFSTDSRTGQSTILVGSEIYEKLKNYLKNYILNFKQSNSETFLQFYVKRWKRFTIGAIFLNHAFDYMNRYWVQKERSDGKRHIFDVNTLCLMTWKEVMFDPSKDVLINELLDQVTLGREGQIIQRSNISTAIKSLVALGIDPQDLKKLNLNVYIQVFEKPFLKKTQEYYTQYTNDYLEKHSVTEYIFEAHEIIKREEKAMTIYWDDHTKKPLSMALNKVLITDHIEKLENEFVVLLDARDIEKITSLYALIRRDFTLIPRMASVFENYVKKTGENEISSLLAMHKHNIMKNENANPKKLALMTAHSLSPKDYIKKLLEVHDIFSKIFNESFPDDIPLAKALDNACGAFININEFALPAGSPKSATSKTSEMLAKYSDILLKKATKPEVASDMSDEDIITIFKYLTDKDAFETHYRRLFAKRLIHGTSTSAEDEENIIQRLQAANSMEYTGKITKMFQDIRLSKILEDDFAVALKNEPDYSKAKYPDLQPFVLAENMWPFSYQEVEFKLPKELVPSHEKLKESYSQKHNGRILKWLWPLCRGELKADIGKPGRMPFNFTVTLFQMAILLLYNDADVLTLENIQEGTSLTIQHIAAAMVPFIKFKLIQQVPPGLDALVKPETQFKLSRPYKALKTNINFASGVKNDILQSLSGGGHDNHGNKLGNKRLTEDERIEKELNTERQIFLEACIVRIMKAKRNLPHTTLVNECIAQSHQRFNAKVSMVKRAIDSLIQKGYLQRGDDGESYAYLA

Variants of: B1
Settings: with cdc53_yeast CDC53, Q12018

effect of a mutation on the interaction	Variant
decreasing interaction	G551A
decreasing interaction	N552A

Variants of: B1
Settings: with cdc53_yeast CDC53, Q12018
Remark: another data set of the same source

effect of a mutation on the interaction	Variant
disrupting interaction	D17A
disrupting interaction	M23A
disrupting interaction	Y22A
disrupting interaction	D19A
